Laboratory results reported in US7375083B2, “Pharmaceutical compositions for prevention of overdose or abuse” (Shire LLC, priority 2003, dated 2008).
Where a SMILES comes first, the peptide text is derived from it. The star is where a group is joined. X1 = COc1ccc2c3c1O[C@H]1C(O*)=CC[C@H]4[C@@H](C2)N(C)CC[C@]314

Experiments:
[1] = Intranasal bioavailability of hydrocodone conjugates in rats, LC/MS/MS; conditions: intranasal, 1 mg/kg dose; for AUC (ng/ml h) 0-1 h / Cmax: hydrocodone plus hydromorphone; for Percent HC (AUC) / Percent HC (Cmax): relative to hydrocodone bitartrate
[2] = Oral bioavailability of hydrocodone conjugates in rats, LC/MS/MS; conditions: for Percent Decrease 1 mg/kg vs. 5 mg/kg AUC / Percent Decrease 1 mg/kg vs. 5 mg/kg Cmax: oral bioavailability; for hydrocodone plus hydromorphone concentration / AUC (ng/ml h) 0-8 h / Cmax / Percent HC (AUC) / Percent HC (Cmax) / Peak levels and bioavailability: oral; for AUC (ng/ml h) 0-8 h / Cmax: hydrocodone plus hydromorphone; for Percent HC (AUC) / Percent HC (Cmax): relative to hydrocodone bitartrate; for Peak levels and bioavailability: rat, 5 mg/kg
[3] = Oral pharmacokinetics in rats, plasma d-amphetamine by ELISA; conditions: Oral, relative to amphetamine (first value where two are given)
[4] = Intravenous bioavailability of hydrocodone conjugates in rats, LC/MS/MS; conditions: intravenous, 1 mg/kg dose; for AUC (ng/ml h) 0-1 h / Cmax: hydrocodone plus hydromorphone; for Percent HC (AUC) / Percent HC (Cmax): relative to hydrocodone bitartrate

SMILES: CC[C@H](C)[C@H](NC(=O)[C@H](CC(=O)O)NC(=O)[C@@H](N)CC(=O)O)C(=O)OC1=CC[C@H]2[C@H]3Cc4ccc(OC)c5c4[C@@]2(CCN3C)[C@H]1O5 [DDI-HC, Asp-Asp-Ile-Hydrocodone]
- hydrocodone plus hydromorphone concentration ([1]; 5 Minutes): 281 ng/mL
- hydrocodone plus hydromorphone concentration ([1]; 15 Minutes): 121 ng/mL
- hydrocodone plus hydromorphone concentration ([1]; 30 Minutes): 64 ng/mL
- hydrocodone plus hydromorphone concentration ([1]; 60 Minutes): 16 ng/mL
- AUC (ng/ml h) 0-1 h [1]: 88 ng·h/mL
- Cmax [1]: 281 ng/mL
- Percent HC (AUC) [1]: 31%
- Percent HC (Cmax) [1]: 51%
- Percent Decrease 1 mg/kg vs. 5 mg/kg AUC [2]: 9%
- Percent Decrease 1 mg/kg vs. 5 mg/kg Cmax [2]: 9%
- hydrocodone plus hydromorphone concentration ([2]; 1 mg/kg dose, 0.5 Hours): 14.9 ng/mL
- hydrocodone plus hydromorphone concentration ([2]; 1 mg/kg dose, 1.5 Hours): 5 ng/mL
- hydrocodone plus hydromorphone concentration ([2]; 1 mg/kg dose, 3 Hours): 0 ng/mL
- hydrocodone plus hydromorphone concentration ([2]; 1 mg/kg dose, 5 Hours): 0 ng/mL
- hydrocodone plus hydromorphone concentration ([2]; 1 mg/kg dose, 8 Hours): 0 ng/mL
- AUC (ng/ml h) 0-8 h ([2]; 1 mg/kg dose): 17.4 ng·h/mL
- Cmax ([2]; 1 mg/kg dose): 14.9 ng/mL
- Percent HC (AUC) ([2]; 1 mg/kg dose): 124%
- Percent HC (Cmax) ([2]; 1 mg/kg dose): 173%
- hydrocodone plus hydromorphone concentration ([2]; 5 mg/kg dose, 0.5 Hours): 115 ng/mL
- hydrocodone plus hydromorphone concentration ([2]; 5 mg/kg dose, 1.5 Hours): 19 ng/mL
- hydrocodone plus hydromorphone concentration ([2]; 5 mg/kg dose, 3 Hours): 11 ng/mL
- hydrocodone plus hydromorphone concentration ([2]; 5 mg/kg dose, 5 Hours): 4 ng/mL
- hydrocodone plus hydromorphone concentration ([2]; 5 mg/kg dose, 8 Hours): 3.1 ng/mL
- AUC (ng/ml h) 0-8 h ([2]; 5 mg/kg dose): 145 ng·h/mL
- Cmax ([2]; 5 mg/kg dose): 115 ng/mL
- Percent HC (AUC) ([2]; 5 mg/kg dose): 113%
- Percent HC (Cmax) ([2]; 5 mg/kg dose): 158%
- Peak levels and bioavailability [2]: substantially decreased

SMILES: CC(Cc1ccccc1)NC(=O)C(N)CCC(=O)O (centres unmarked) [E-Amp]
- Percent AUC [3]: 73%
- Percent Cmax [3]: 95%

SMILES: CC(Cc1ccccc1)NC(=O)[C@H](CCC(=O)O)NC(=O)[C@@H](N)CCC(=O)O (some centres unmarked) [EE-Amp]
- Percent AUC [3]: 26%
- Percent Cmax [3]: 74%

SMILES: CC(Cc1ccccc1)NC(=O)[C@H](Cc1ccccc1)NC(=O)[C@H](CCC(=O)O)NC(=O)[C@@H](N)CCC(=O)O (some centres unmarked) [EEF-Amp]
- Percent AUC [3]: 42%
- Percent Cmax [3]: 73%

SMILES: COc1ccc2c3c1O[C@H]1C(OC(=O)[C@H](Cc4ccccc4)NC(=O)[C@H](Cc4ccccc4)NC(=O)[C@H](Cc4ccccc4)NC(=O)[C@H](CCC(=O)O)NC(=O)[C@@H](N)CCC(=O)O)=CC[C@H]4[C@@H](C2)N(C)CC[C@]314 [EEFFF[SEQ ID NO: 3]-HC, Glu-Glu-Phe-Phe-Phe[SEQ ID NO: 3]-Hydrocodone] (H-EEFFF-X1)
- hydrocodone plus hydromorphone concentration ([1]; 5 Minutes): 34 ng/mL
- hydrocodone plus hydromorphone concentration ([1]; 15 Minutes): 21 ng/mL
- hydrocodone plus hydromorphone concentration ([1]; 30 Minutes): 24 ng/mL
- hydrocodone plus hydromorphone concentration ([1]; 60 Minutes): 15 ng/mL
- AUC (ng/ml h) 0-1 h [1]: 21 ng·h/mL
- Cmax [1]: 34 ng/mL
- Percent HC (AUC) [1]: 14%
- Percent HC (Cmax) [1]: 13%
- hydrocodone plus hydromorphone concentration ([4]; 5 Minutes): 135 ng/mL
- hydrocodone plus hydromorphone concentration ([4]; 15 Minutes): 77 ng/mL
- hydrocodone plus hydromorphone concentration ([4]; 30 Minutes): 140 ng/mL
- hydrocodone plus hydromorphone concentration ([4]; 60 Minutes): 85 ng/mL
- AUC (ng/ml h) 0-1 h [4]: 107 ng·h/mL
- Cmax [4]: 135 ng/mL
- Percent HC (AUC) [4]: 62%
- Percent HC (Cmax) [4]: 75%
- hydrocodone plus hydromorphone concentration ([2]; 1 mg/kg dose, 0.5 Hours): 11.3 ng/mL
- hydrocodone plus hydromorphone concentration ([2]; 1 mg/kg dose, 1.5 Hours): 4.1 ng/mL
- hydrocodone plus hydromorphone concentration ([2]; 1 mg/kg dose, 3 Hours): 1.2 ng/mL
- hydrocodone plus hydromorphone concentration ([2]; 1 mg/kg dose, 5 Hours): 1.2 ng/mL
- hydrocodone plus hydromorphone concentration ([2]; 1 mg/kg dose, 8 Hours): 1.2 ng/mL
- AUC (ng/ml h) 0-8 h ([2]; 1 mg/kg dose): 20.7 ng·h/mL
- Cmax ([2]; 1 mg/kg dose): 11.3 ng/mL
- Percent HC (AUC) ([2]; 1 mg/kg dose): 108%
- Percent HC (Cmax) ([2]; 1 mg/kg dose): 119%

SMILES: CC[C@H](C)[C@H](NC(=O)[C@H](Cc1ccccc1)NC(=O)[C@H](Cc1ccccc1)NC(=O)[C@H](CCC(=O)O)NC(=O)[C@@H](N)CCC(=O)O)C(=O)OC1=CC[C@H]2[C@H]3Cc4ccc(OC)c5c4[C@@]2(CCN3C)[C@H]1O5 [EEFFI[SEQ ID NO: 5]-HC, Glu-Glu-Phe-Phe-Ile[SEQ ID NO: 5]-Hydrocodone] (H-EEFFI-X1)
- hydrocodone plus hydromorphone concentration ([4]; 5 Minutes): 89 ng/mL
- hydrocodone plus hydromorphone concentration ([4]; 15 Minutes): 76 ng/mL
- hydrocodone plus hydromorphone concentration ([4]; 30 Minutes): 78 ng/mL
- hydrocodone plus hydromorphone concentration ([4]; 60 Minutes): 66 ng/mL
- AUC (ng/ml h) 0-1 h [4]: 66 ng·h/mL
- Cmax [4]: 89 ng/mL
- Percent HC (AUC) [4]: 38%
- Percent HC (Cmax) [4]: 44%
- Percent Decrease 1 mg/kg vs. 5 mg/kg AUC [2]: 70%
- Percent Decrease 1 mg/kg vs. 5 mg/kg Cmax [2]: 65%
- hydrocodone plus hydromorphone concentration ([2]; 1 mg/kg dose, 0.5 Hours): 12.9 ng/mL
- hydrocodone plus hydromorphone concentration ([2]; 1 mg/kg dose, 1.5 Hours): 5.2 ng/mL
- hydrocodone plus hydromorphone concentration ([2]; 1 mg/kg dose, 3 Hours): 4.2 ng/mL
- hydrocodone plus hydromorphone concentration ([2]; 1 mg/kg dose, 5 Hours): 0 ng/mL
- hydrocodone plus hydromorphone concentration ([2]; 1 mg/kg dose, 8 Hours): 1.6 ng/mL
- AUC (ng/ml h) 0-8 h ([2]; 1 mg/kg dose): 25.8 ng·h/mL
- Cmax ([2]; 1 mg/kg dose): 12.9 ng/mL
- Percent HC (AUC) ([2]; 1 mg/kg dose): 135%
- Percent HC (Cmax) ([2]; 1 mg/kg dose): 136%
- hydrocodone plus hydromorphone concentration ([2]; 5 mg/kg dose, 0.5 Hours): 44 ng/mL
- hydrocodone plus hydromorphone concentration ([2]; 5 mg/kg dose, 1.5 Hours): 6.5 ng/mL
- hydrocodone plus hydromorphone concentration ([2]; 5 mg/kg dose, 3 Hours): 5.7 ng/mL
- hydrocodone plus hydromorphone concentration ([2]; 5 mg/kg dose, 5 Hours): 4.2 ng/mL
- hydrocodone plus hydromorphone concentration ([2]; 5 mg/kg dose, 8 Hours): 4.5 ng/mL
- AUC (ng/ml h) 0-8 h ([2]; 5 mg/kg dose): 68 ng·h/mL
- Cmax ([2]; 5 mg/kg dose): 44 ng/mL
- Percent HC (AUC) ([2]; 5 mg/kg dose): 41%
- Percent HC (Cmax) ([2]; 5 mg/kg dose): 47%
- Peak levels and bioavailability [2]: substantially decreased

SMILES: CC(Cc1ccccc1)NC(=O)[C@H](Cc1ccccc1)NC(=O)[C@@H](N)Cc1ccccc1 (some centres unmarked) [FF-Amp]
- Percent AUC [3]: 27%
- Percent Cmax [3]: 64%

SMILES: CC(Cc1ccccc1)NC(=O)CNC(=O)CN (centres unmarked) [GG-Amp]
- Percent AUC [3]: 79%
- Percent Cmax [3]: 88%

SMILES: CC(Cc1ccccc1)NC(=O)C(N)Cc1cnc[nH]1 (centres unmarked) [H-Amp]
- Percent AUC [3]: 16%
- Percent Cmax [3]: 21%
